To fix the notation:
B1: POU domain, class 3, transcription factor 1, residues 247 to 324; numbered along this chain, Q03052 (parent)
chain: EDAPSSDDLEQFAKQFKQRRIKLGFTQADVGLALGTLYGNVFSQTTICRFEALQLSFKNMCKLKPLLNKWLEETDSSS

± gives the uncertainty stated by the source.

In this data set the parent is B1. In words: abundance fitness (aPCA) (normalised: wild type 0, dead -1); higher = more abundant; growth selection in yeast, the domain comes from the species named. To be noted: Homo sapiens.
For EDAPESDDLEQFAKQFKQRRIKLGFTQADVGLALGTLYGNVFSQTTICRFEALQLSFKNMCKLKPLLNKWLEETDSSS [S5E], the abundance fitness worked out at 0.111 ± 0.071.

As for EDAPNSDDLEQFAKQFKQRRIKLGFTQADVGLALGTLYGNVFSQTTICRFEALQLSFKNMCKLKPLLNKWLEETDSSS [S5N], the abundance fitness is 0.119 ± 0.13.

For the variant EDAPPSDDLEQFAKQFKQRRIKLGFTQADVGLALGTLYGNVFSQTTICRFEALQLSFKNMCKLKPLLNKWLEETDSSS [S5P], the abundance fitness worked out at 0.067 ± 0.097. In the case of EDAPHSDDLEQFAKQFKQRRIKLGFTQADVGLALGTLYGNVFSQTTICRFEALQLSFKNMCKLKPLLNKWLEETDSSS [S5H] it was 0.283 ± 0.1; in that of EDAPKSDDLEQFAKQFKQRRIKLGFTQADVGLALGTLYGNVFSQTTICRFEALQLSFKNMCKLKPLLNKWLEETDSSS [S5K], 0.07 ± 0.074.

On to EDAPTSDDLEQFAKQFKQRRIKLGFTQADVGLALGTLYGNVFSQTTICRFEALQLSFKNMCKLKPLLNKWLEETDSSS [S5T], for which the abundance fitness was 0.09 ± 0.081.

Consider EDAPSSMDLEQFAKQFKQRRIKLGFTQADVGLALGTLYGNVFSQTTICRFEALQLSFKNMCKLKPLLNKWLEETDSSS [D7M], for which the abundance fitness was -0.153 ± 0.1. For EDAPSSRDLEQFAKQFKQRRIKLGFTQADVGLALGTLYGNVFSQTTICRFEALQLSFKNMCKLKPLLNKWLEETDSSS [D7R], the abundance fitness was -0.085 ± 0.058. Under EDAPSSGDLEQFAKQFKQRRIKLGFTQADVGLALGTLYGNVFSQTTICRFEALQLSFKNMCKLKPLLNKWLEETDSSS [D7G] stands -0.045 ± 0.057; under EDAPSSPDLEQFAKQFKQRRIKLGFTQADVGLALGTLYGNVFSQTTICRFEALQLSFKNMCKLKPLLNKWLEETDSSS [D7P], -0.642 ± 0.23; under EDAPSSYDLEQFAKQFKQRRIKLGFTQADVGLALGTLYGNVFSQTTICRFEALQLSFKNMCKLKPLLNKWLEETDSSS [D7Y], 0.101 ± 0.12. Turning to EDAPSSNDLEQFAKQFKQRRIKLGFTQADVGLALGTLYGNVFSQTTICRFEALQLSFKNMCKLKPLLNKWLEETDSSS [D7N], the abundance fitness is -0.305 ± 0.36. In the case of EDAPSSWDLEQFAKQFKQRRIKLGFTQADVGLALGTLYGNVFSQTTICRFEALQLSFKNMCKLKPLLNKWLEETDSSS [D7W], the abundance fitness was -0.427 ± 0.11.

Regarding EDAPSSHDLEQFAKQFKQRRIKLGFTQADVGLALGTLYGNVFSQTTICRFEALQLSFKNMCKLKPLLNKWLEETDSSS [D7H], the abundance fitness is -0.361 ± 0.37. Under EDAPSSQDLEQFAKQFKQRRIKLGFTQADVGLALGTLYGNVFSQTTICRFEALQLSFKNMCKLKPLLNKWLEETDSSS [D7Q] stands -0.138 ± 0.15; under EDAPSSSDLEQFAKQFKQRRIKLGFTQADVGLALGTLYGNVFSQTTICRFEALQLSFKNMCKLKPLLNKWLEETDSSS [D7S], -0.477 ± 0.13; under EDAPSSADLEQFAKQFKQRRIKLGFTQADVGLALGTLYGNVFSQTTICRFEALQLSFKNMCKLKPLLNKWLEETDSSS [D7A], -0.142 ± 0.081.

For EDAPSSEDLEQFAKQFKQRRIKLGFTQADVGLALGTLYGNVFSQTTICRFEALQLSFKNMCKLKPLLNKWLEETDSSS [D7E], the abundance fitness was found to be 0.089 ± 0.08.

Regarding EDAPSSVDLEQFAKQFKQRRIKLGFTQADVGLALGTLYGNVFSQTTICRFEALQLSFKNMCKLKPLLNKWLEETDSSS [D7V], the abundance fitness is -0.181 ± 0.071. Under EDAPSSTDLEQFAKQFKQRRIKLGFTQADVGLALGTLYGNVFSQTTICRFEALQLSFKNMCKLKPLLNKWLEETDSSS [D7T] stands -0.073 ± 0.11.

With EDAPSSFDLEQFAKQFKQRRIKLGFTQADVGLALGTLYGNVFSQTTICRFEALQLSFKNMCKLKPLLNKWLEETDSSS [D7F], the abundance fitness was -0.616 ± 0.22. In the case of EDAPSSKDLEQFAKQFKQRRIKLGFTQADVGLALGTLYGNVFSQTTICRFEALQLSFKNMCKLKPLLNKWLEETDSSS [D7K] it was 0.358 ± 0.14. As for EDAPSSCDLEQFAKQFKQRRIKLGFTQADVGLALGTLYGNVFSQTTICRFEALQLSFKNMCKLKPLLNKWLEETDSSS [D7C], the abundance fitness is -0.316 ± 0.15. Under EDAPSSDILEQFAKQFKQRRIKLGFTQADVGLALGTLYGNVFSQTTICRFEALQLSFKNMCKLKPLLNKWLEETDSSS [D8I] stands -0.529 ± 0.28.

Consider EDAPSSDGLEQFAKQFKQRRIKLGFTQADVGLALGTLYGNVFSQTTICRFEALQLSFKNMCKLKPLLNKWLEETDSSS [D8G], for which the abundance fitness is -0.095 ± 0.061.

As to EDAPSSDLLEQFAKQFKQRRIKLGFTQADVGLALGTLYGNVFSQTTICRFEALQLSFKNMCKLKPLLNKWLEETDSSS [D8L], the abundance fitness is -0.491 ± 0.15.

EDAPSSDCLEQFAKQFKQRRIKLGFTQADVGLALGTLYGNVFSQTTICRFEALQLSFKNMCKLKPLLNKWLEETDSSS [D8C]: the abundance fitness was -0.358 ± 0.17.

In the case of EDAPSSDELEQFAKQFKQRRIKLGFTQADVGLALGTLYGNVFSQTTICRFEALQLSFKNMCKLKPLLNKWLEETDSSS [D8E], the abundance fitness was -0.076 ± 0.085.

As to EDAPSSDQLEQFAKQFKQRRIKLGFTQADVGLALGTLYGNVFSQTTICRFEALQLSFKNMCKLKPLLNKWLEETDSSS [D8Q], the abundance fitness was -0.25 ± 0.12. In the case of EDAPSSDHLEQFAKQFKQRRIKLGFTQADVGLALGTLYGNVFSQTTICRFEALQLSFKNMCKLKPLLNKWLEETDSSS [D8H] it was -0.276 ± 0.41. Regarding EDAPSSDNLEQFAKQFKQRRIKLGFTQADVGLALGTLYGNVFSQTTICRFEALQLSFKNMCKLKPLLNKWLEETDSSS [D8N], the abundance fitness was -0.294 ± 0.2. As to EDAPSSDALEQFAKQFKQRRIKLGFTQADVGLALGTLYGNVFSQTTICRFEALQLSFKNMCKLKPLLNKWLEETDSSS [D8A], the abundance fitness was -0.183 ± 0.079. Turning to EDAPSSDFLEQFAKQFKQRRIKLGFTQADVGLALGTLYGNVFSQTTICRFEALQLSFKNMCKLKPLLNKWLEETDSSS [D8F], the abundance fitness is -0.481 ± 0.41. In the case of EDAPSSDKLEQFAKQFKQRRIKLGFTQADVGLALGTLYGNVFSQTTICRFEALQLSFKNMCKLKPLLNKWLEETDSSS [D8K] it was -0.397 ± 0.16; in that of EDAPSSDMLEQFAKQFKQRRIKLGFTQADVGLALGTLYGNVFSQTTICRFEALQLSFKNMCKLKPLLNKWLEETDSSS [D8M], 0.014 ± 0.14.

(Values after the Human Domainome abundance scans (Beltran et al. 2025).)
